In PMC12102759 (2025) one finds screen value data, which are given here for 56 variants.

The labels stand for the following.
B1: AMOTL2 peptide 66-81 (Angiomotin-like protein 2), 16-mer library wild type / TNKS ANK (TNKS 12 ANK repeats, residues 174-649) (parent complex)
chain 1: LQQATRQEPQGQEHQG
chain 2: TGVPAVSGALRELLEACRNGDVSRVKRLVDAANVNAKDMAGRKSSPLHFAAGFGRKDVVEHLLQMGANVHARDDGGLIPLHNACSFGHAEVVSLLLCQGADPNARDNWNYTPLHEAAIKGKIDVCIVLLQHGADPNIRNTDGKSALDLADPSAKAVLTGEYKKDELLEAARSGNEEKLMALLTPLNVNCHASDGRKSTPLHLAAGYNRVRIVQLLLQHGADVHAKDKGGLVPLHNACSYGHYEVTELLLKHGACVNAMDLWQFTPLHEAASKNRVEVCSLLLSHGADPTLVNCHGKSAVDMAPTPELRERLTYEFKGHSLLQAAREADLAKVKKTLALEIINFKQPQSHETALHCAVASLHPKRKQVTELLLRKGANVNEKNKDFMTPLHVAAERAHNDVMEVLHKHGAKMNALDTLGQTALHRAALAGHLQTCRLLLSYGSDPSIISLQGFTAAQMGNEAVQQILSESTPIRTSD

Variants of B1 are the subject of the test. The test is described as follows: proteomic peptide phage display deep mutational scan (ProP-PD DMS): M13 P8 16-mer library selected against immobilised GST-tagged bait for four days (rounds), NGS of the eluted pools per day and pseudo-replica; bait immobilised on MaxiSorp plates (10 µg), library pre-cleared on GST, 2 h binding at 4 °C, five washes; one round per day, days 1-4; value from days 2 and 3.
As to chain 1 LQSATRQEPQGQEHQG [chain 1 Q3S], the screen value was 0.000813 average fractional NGS count over selection days 2 and 3 (reads of this peptide / all reads for the bait, averaged over ….

Consider chain 1 LQQATRQEAQGQEHQG [chain 1 P9A], for which the screen value was 0.000163 average fractional NGS count over selection days 2 and 3 (reads of this peptide / all reads for the bait, averaged over ….

Turning to chain 1 LQQATRQETQGQEHQG [chain 1 P9T], the screen value was 0.000277 average fractional NGS count over selection days 2 and 3 (reads of this peptide / all reads for the bait, averaged over ….

Regarding chain 1 LQQATRQEPQGLEHQG [chain 1 Q12L], the screen value was 0.000442 average fractional NGS count over selection days 2 and 3 (reads of this peptide / all reads for the bait, averaged over ….

For chain 1 LQQATRQEPQGHEHQG [chain 1 Q12H], the screen value was 0.00103 average fractional NGS count over selection days 2 and 3 (reads of this peptide / all reads for the bait, averaged over ….

As for chain 1 LQQATRQEPQGFEHQG [chain 1 Q12F], the screen value is 0.000217 average fractional NGS count over selection days 2 and 3 (reads of this peptide / all reads for the bait, averaged over ….

On to chain 1 LQQATRQEPQGYEHQG [chain 1 Q12Y], for which the screen value is 0.000541 average fractional NGS count over selection days 2 and 3 (reads of this peptide / all reads for the bait, averaged over ….

Turning to chain 1 LQQATRQEPQGWEHQG [chain 1 Q12W], the screen value is 0.000131 average fractional NGS count over selection days 2 and 3 (reads of this peptide / all reads for the bait, averaged over ….

As for chain 1 LQQATRQEPQGAEHQG [chain 1 Q12A], the screen value is 0.000321 average fractional NGS count over selection days 2 and 3 (reads of this peptide / all reads for the bait, averaged over ….

Regarding chain 1 LQQATRQEPQGQHHQG [chain 1 E13H], the screen value was 0.000694 average fractional NGS count over selection days 2 and 3 (reads of this peptide / all reads for the bait, averaged over ….

In the case of chain 1 LQQATRQEPQGQMHQG [chain 1 E13M], the screen value was 0.000514 average fractional NGS count over selection days 2 and 3 (reads of this peptide / all reads for the bait, averaged over ….

Consider chain 1 LQQATRQEPQGQNHQG [chain 1 E13N], for which the screen value was 0.000173 average fractional NGS count over selection days 2 and 3 (reads of this peptide / all reads for the bait, averaged over ….

As for chain 1 LQQATRQEPQGQQHQG [chain 1 E13Q], the screen value was 0.000235 average fractional NGS count over selection days 2 and 3 (reads of this peptide / all reads for the bait, averaged over ….

In the case of chain 1 LQQATRQEPQGQVHQG [chain 1 E13V], the screen value was 0.00131 average fractional NGS count over selection days 2 and 3 (reads of this peptide / all reads for the bait, averaged over ….

chain 1 LQQATRQEPQGQIHQG [chain 1 E13I]: the screen value was 0.000226 average fractional NGS count over selection days 2 and 3 (reads of this peptide / all reads for the bait, averaged over ….

On to chain 1 LQQATRQEPQGQSHQG [chain 1 E13S], for which the screen value is 0.000101 average fractional NGS count over selection days 2 and 3 (reads of this peptide / all reads for the bait, averaged over ….

As to chain 1 GQQATRQEPQGQEHQG [chain 1 L1G], the screen value was 0.000254 average fractional NGS count over selection days 2 and 3 (reads of this peptide / all reads for the bait, averaged over ….

On to chain 1 NQQATRQEPQGQEHQG [chain 1 L1N], for which the screen value is 0.000133 average fractional NGS count over selection days 2 and 3 (reads of this peptide / all reads for the bait, averaged over ….

chain 1 DQQATRQEPQGQEHQG [chain 1 L1D]: the screen value was 0.00194 average fractional NGS count over selection days 2 and 3 (reads of this peptide / all reads for the bait, averaged over ….

On to chain 1 MQQATRQEPQGQEHQG [chain 1 L1M], for which the screen value was 0.000626 average fractional NGS count over selection days 2 and 3 (reads of this peptide / all reads for the bait, averaged over ….

Consider chain 1 WQQATRQEPQGQEHQG [chain 1 L1W], for which the screen value was 0.000562 average fractional NGS count over selection days 2 and 3 (reads of this peptide / all reads for the bait, averaged over ….

As for chain 1 AQQATRQEPQGQEHQG [chain 1 L1A], the screen value was 0.00444 average fractional NGS count over selection days 2 and 3 (reads of this peptide / all reads for the bait, averaged over ….

As to chain 1 IQQATRQEPQGQEHQG [chain 1 L1I], the screen value is 0.000531 average fractional NGS count over selection days 2 and 3 (reads of this peptide / all reads for the bait, averaged over ….

As to chain 1 VQQATRQEPQGQEHQG [chain 1 L1V], the screen value was 0.00393 average fractional NGS count over selection days 2 and 3 (reads of this peptide / all reads for the bait, averaged over ….

Turning to chain 1 PQQATRQEPQGQEHQG [chain 1 L1P], the screen value was 0.000936 average fractional NGS count over selection days 2 and 3 (reads of this peptide / all reads for the bait, averaged over ….

chain 1 SQQATRQEPQGQEHQG [chain 1 L1S]: the screen value was 0.000161 average fractional NGS count over selection days 2 and 3 (reads of this peptide / all reads for the bait, averaged over ….

chain 1 HQQATRQEPQGQEHQG [chain 1 L1H]: the screen value is 0.00276 average fractional NGS count over selection days 2 and 3 (reads of this peptide / all reads for the bait, averaged over ….

For the variant chain 1 LQQYTRQEPQGQEHQG [chain 1 A4Y], the screen value was 0.00172 average fractional NGS count over selection days 2 and 3 (reads of this peptide / all reads for the bait, averaged over ….

Take chain 1 LQQLTRQEPQGQEHQG [chain 1 A4L]: the screen value is 0.00111 average fractional NGS count over selection days 2 and 3 (reads of this peptide / all reads for the bait, averaged over ….

Turning to chain 1 LQQMTRQEPQGQEHQG [chain 1 A4M], the screen value was 0.00014 average fractional NGS count over selection days 2 and 3 (reads of this peptide / all reads for the bait, averaged over ….

With chain 1 LQQPTRQEPQGQEHQG [chain 1 A4P], the screen value is 0.00156 average fractional NGS count over selection days 2 and 3 (reads of this peptide / all reads for the bait, averaged over ….

Regarding chain 1 LQQRTRQEPQGQEHQG [chain 1 A4R], the screen value was 0.000178 average fractional NGS count over selection days 2 and 3 (reads of this peptide / all reads for the bait, averaged over ….

On to chain 1 LQQNTRQEPQGQEHQG [chain 1 A4N], for which the screen value was 0.000378 average fractional NGS count over selection days 2 and 3 (reads of this peptide / all reads for the bait, averaged over ….

Turning to chain 1 LQQHTRQEPQGQEHQG [chain 1 A4H], the screen value was 0.000353 average fractional NGS count over selection days 2 and 3 (reads of this peptide / all reads for the bait, averaged over ….

Regarding chain 1 LQQGTRQEPQGQEHQG [chain 1 A4G], the screen value is 0.00149 average fractional NGS count over selection days 2 and 3 (reads of this peptide / all reads for the bait, averaged over ….

As to chain 1 LQQQTRQEPQGQEHQG [chain 1 A4Q], the screen value is 0.00114 average fractional NGS count over selection days 2 and 3 (reads of this peptide / all reads for the bait, averaged over ….

For chain 1 LQQATRQEPQGQEHHG [chain 1 Q15H], the screen value was 0.00187 average fractional NGS count over selection days 2 and 3 (reads of this peptide / all reads for the bait, averaged over ….

As for chain 1 LQQATRQEPQGQEHFG [chain 1 Q15F], the screen value was 0.000668 average fractional NGS count over selection days 2 and 3 (reads of this peptide / all reads for the bait, averaged over ….

In the case of chain 1 LQQATRQEPQGQEHPG [chain 1 Q15P], the screen value was 0.000799 average fractional NGS count over selection days 2 and 3 (reads of this peptide / all reads for the bait, averaged over ….

chain 1 LQQATRQEPQGQEHGG [chain 1 Q15G]: the screen value is 0.000723 average fractional NGS count over selection days 2 and 3 (reads of this peptide / all reads for the bait, averaged over ….

As to chain 1 LQQATRQEPQGQEHTG [chain 1 Q15T], the screen value was 0.000883 average fractional NGS count over selection days 2 and 3 (reads of this peptide / all reads for the bait, averaged over ….

Turning to chain 1 LQQATRQEPQGQEHMG [chain 1 Q15M], the screen value is 0.00112 average fractional NGS count over selection days 2 and 3 (reads of this peptide / all reads for the bait, averaged over ….

In the case of chain 1 LQQATRQEPQGQEHDG [chain 1 Q15D], the screen value was 0.000198 average fractional NGS count over selection days 2 and 3 (reads of this peptide / all reads for the bait, averaged over ….

As for chain 1 LQQATRQEPQGQEHSG [chain 1 Q15S], the screen value was 0.00112 average fractional NGS count over selection days 2 and 3 (reads of this peptide / all reads for the bait, averaged over ….

Turning to chain 1 LQQATRQEPQGQEHEG [chain 1 Q15E], the screen value is 0.000569 average fractional NGS count over selection days 2 and 3 (reads of this peptide / all reads for the bait, averaged over ….

Consider chain 1 LQQATRQEPQGQEHYG [chain 1 Q15Y], for which the screen value is 0.00994 average fractional NGS count over selection days 2 and 3 (reads of this peptide / all reads for the bait, averaged over ….

On to chain 1 LQQATRQEPQGQEKQG [chain 1 H14K], for which the screen value was 0.00043 average fractional NGS count over selection days 2 and 3 (reads of this peptide / all reads for the bait, averaged over ….

As for chain 1 LQQATRQEPQGQELQG [chain 1 H14L], the screen value is 0.000412 average fractional NGS count over selection days 2 and 3 (reads of this peptide / all reads for the bait, averaged over ….

For chain 1 LQQATRQEPQGQEEQG [chain 1 H14E], the screen value is 0.000155 average fractional NGS count over selection days 2 and 3 (reads of this peptide / all reads for the bait, averaged over ….

chain 1 LQQATRQEPQGQENQG [chain 1 H14N]: the screen value was 0.000168 average fractional NGS count over selection days 2 and 3 (reads of this peptide / all reads for the bait, averaged over ….

For chain 1 LQQATRQEPQGQERQG [chain 1 H14R], the screen value is 0.00174 average fractional NGS count over selection days 2 and 3 (reads of this peptide / all reads for the bait, averaged over ….

chain 1 LQQATRQEPQGQEFQG [chain 1 H14F]: the screen value was 0.00233 average fractional NGS count over selection days 2 and 3 (reads of this peptide / all reads for the bait, averaged over ….

As to chain 1 LQQATRQEPQGQESQG [chain 1 H14S], the screen value was 0.000117 average fractional NGS count over selection days 2 and 3 (reads of this peptide / all reads for the bait, averaged over ….

For the variant chain 1 LQQATRQEPQGQEQQG [chain 1 H14Q], the screen value was 0.000459 average fractional NGS count over selection days 2 and 3 (reads of this peptide / all reads for the bait, averaged over ….

Consider chain 1 LQQATRQEPQGQEAQG [chain 1 H14A], for which the screen value was 0.00145 average fractional NGS count over selection days 2 and 3 (reads of this peptide / all reads for the bait, averaged over ….

As for chain 1 LQQATRQEPQGQEWQG [chain 1 H14W], the screen value is 0.00121 average fractional NGS count over selection days 2 and 3 (reads of this peptide / all reads for the bait, averaged over ….
